Drawing on publication PMC7809593 (2021), this text covers Kd for one molecule.

The target of this test is CXCL12α (Homo sapiens, UniProt P48061, CXCR4 fused to Kate2). Description: receptor internalization sensor.

B1: CXCR4 (protein)
chain: MEGISIYTSDNYTEEMGSGDYDSMKEPCFREENANFNKIFLPTIYSIIFLTGIVGNGLVILVMGYQKKLRSMTDKYRLHLSVADLLFVITLPFWAVDAVANWYFGNFLCKAVHVIYTVNLYSSVLILAFISLDRYLAIVHATNSQRPRKLLAEKVVYVGVWIPALLLTIPDFIFANVSEADDRYICDRFYPNDLWVVVFQFQHIMVGLILPGIVILSCYCIIISKLSHSKGHQKRKALKTTVILILAFFACWLPYYIGISIDSFILLEIIKQGCEFENTVHKWISITEALAFFHCCLNPILYAFLGAKFKTSAQHALTSVSRGSSLKILSKGKRGGHSSVSTESESSSFHSS
For orientation: Kd means the equilibrium constant for the complex coming apart. A high value points to weaker binding. In turn, B1 yielded a Kd of about 2 nM.
